How the values were obtained:
[1] = target: ESO157 A4 peptide (…)/HLA-A*02:01 complex on T2 cells (human); assay: FACS, peptide-pulsed T2 cells
[2] = target: T1, HLA-A*02:01 on T2 cells without peptide loading (human); assay: FACS, peptide-pulsed T2 cells
T1 construct: TAP-deficient T2 cells, no peptide added; also called No peptide; T2 cells with no peptide loaded

[3] = target: ESO157 A1 peptide (…)/HLA-A*02:01 complex on T2 cells (human); assay: FACS, peptide-pulsed T2 cells
[4] = target: ESO157 A8 peptide (…)/HLA-A*02:01 complex on T2 cells (human); assay: FACS, peptide-pulsed T2 cells
[5] = target: ESO157 A7 peptide (…)/HLA-A*02:01 complex on T2 cells (human); assay: FACS, peptide-pulsed T2 cells
[6] = target: T2, ESO157 wild type peptide (…)/HLA-A*02:01 complex on cells (human); assay: FACS, peptide-pulsed T2 cells
T2 construct: also called ESO157-loaded T2 cells

[7] = target: ESO157 A5 peptide (…)/HLA-A*02:01 complex on T2 cells (human); assay: FACS, peptide-pulsed T2 cells
[8] = target: ESO157 A3 peptide (…)/HLA-A*02:01 complex on T2 cells (human); assay: FACS, peptide-pulsed T2 cells
Bio-C9V mutant = target: T3, Bio-C9V mutant; assay: phage ELISA: streptavidin plate coated with biotinylated peptide/HLA-A*02:01 monomer, phage detected with HRP-conjugated anti-M13 antibody, absorbance at 450 nm
T3 construct: also called biotinylated ESO157 C9V/HLA-A*02:01 complex monomer

[9] = target: ESO157 A6 peptide (…)/HLA-A*02:01 complex on T2 cells (human); assay: FACS, peptide-pulsed T2 cells
[10] = target: biotinylated recombinant ESO157/HLA-A*02:06 complex (human); assay: BLI (Octet QK), biotinylated pMHC on streptavidin sensor, BsAb 10 ug/mL
[11] = target: biotinylated recombinant ESO157/HLA-A*02:02 complex (human); assay: as above
[12] = target: T4, ESO157 homolog 5 peptide (…)/HLA-A*02:01 on T2 cells (human); assay: FACS, phage on T2 cells, 50 ug/ml peptide;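 further: binding of phage clones to peptide/MHC complexes detected by flow cytometry after staining with an anti-M13 antibody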
T4 construct: also called ESO157 H5

[13] = target: T5, ESO157 homolog 2 peptide (…)/HLA-A*02:01 on T2 cells (human); assay: FACS, phage on T2 cells, 50 ug/ml peptide;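 further: binding of phage clones to peptide/MHC complexes detected by flow cytometry after staining with an anti-M13 antibody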
T5 construct: also called ESO157 H2

[14] = target: T6, ESO157 homolog 4 peptide (…)/HLA-A*02:01 on T2 cells (human); assay: FACS, phage on T2 cells, 50 ug/ml peptide;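 further: binding of phage clones to peptide/MHC complexes detected by flow cytometry after staining with an anti-M13 antibody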
T6 construct: also called ESO157 H4

[15] = target: T7, ESO157 homolog 1 peptide (…)/HLA-A*02:01 on T2 cells (human); assay: FACS, phage on T2 cells, 50 ug/ml peptide;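 further: binding of phage clones to peptide/MHC complexes detected by flow cytometry after staining with an anti-M13 antibody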
T7 construct: also called ESO157 H1

[16] = target: T8, ESO157 homolog 3 peptide (…)/HLA-A*02:01 on T2 cells (human); assay: FACS, phage on T2 cells, 50 ug/ml peptide
T8 construct: also called ESO157 H3

B1: phage clone #76, anti-ESO157/HLA-A*02:01 scFv displayed on phage (scFv, V domains shown)
VH: EVQLVQSGAEVKKPGSSVKVSCKASGGTFSSYAISWVRQAPGQGLEWMGGIIPIFGTANYAQKFQGRVTITADESTSTAYMELSSLRSEDTAVYYCARYDSYVYDEWGQGTLVTVSS
VL: QSVVTQPPSLSGAPGQRVTISCNGSGSNIGAGYDVHWYQQLPGTAPKLLIYGNSNRPSGVPDRFSGSKSGTSASLAITGLQAEDEADYYCQSYDSSLSGWGIFGGGTKLTVLG
- MFI [1]: 191
- MFI [2]: 131
- MFI [3]: 14600
- MFI [4]: 12700
- MFI [5]: 6200
- MFI [6]: 7460
- MFI [7]: 160
- MFI [8]: 42900
- binding result (Bio-C9V mutant): binds

B2: phage clone #146, anti-ESO157/HLA-A*02:01 scFv displayed on phage (scFv, V domains shown)
VH: EVQLVQSGAEVKKPGASVKVSCKVSGYTLTDLPMHWVRQAPGKGLEWMGGFDPEDGEIIYAQKFQGRVTMTEDTFTDTAYVELSSLRSEDTAVYYCARYVPYVSYSDSWGQGTLVTVSS
VL: not shown
- MFI [1]: 3200
- MFI [2]: 132
- MFI [3]: 9300
- MFI [4]: 18600
- MFI [5]: 333
- MFI [7]: 180
- MFI [8]: 181
- binding result (Bio-C9V mutant): binds

B3: phage clone #148, anti-ESO157/HLA-A*02:01 scFv displayed on phage (scFv, V domains shown)
VH: EVQLVQSGAEVKKPGASVKVSCKASGGTFSSYAISWVRQAPGQGLEWMGGIIPIFGTANYAQKFQGRVTITADKSTSTAYMELSSLRSEDTAVYYCARSYWSWTPYDPWGQGTLVTVSS
VL: LPVLTQPPSVSVAPGKTARITCGGNNIGSKSVHWYQQKPGQAPVLVIYYDSDRPSGIPERFSGSNSGNTATLTISRVEAGDEADYYCQVWDSSSDHYVFGTGTKVTVLG
- MFI [1]: 240
- MFI [9]: 17500
- MFI [2]: 208
- MFI [3]: 27700
- MFI [4]: 58300
- MFI [5]: 62400
- MFI [7]: 14200
- MFI [8]: 52900
- binding result (Bio-C9V mutant): binds

B4: ESO157 BsAb #116 (anti-ESO157/HLA-A*02:01 scFv x anti-human CD3epsilon scFv, single chain) (bispecific antibody)
chain: QSVLTQPPSVSAAPGQKVTISCSGSSSNIGNNYVSWYQQLPGTAPKLLIYDNNKRPSGIPDRFSGSKSGTSATLGITGLQTGDEADYYCGTWDSSLSAEVFGTGTKVTVLGSRGGGGSGGGGSGGGGSLEMAQVQLVQSGPEVKKPGASMKVSCKASGYTFTKYGISWVRQAPGQGLEWMGWISADSGKTSYAQNLQGRVSLTIDTSTATAYMELRSLRSDDTAVYYCARDDDSWGQGTLVTVSS
- Kd [10]: 0.8 nM
- Kd [11]: 1.8 nM

B5: phage clone #35, anti-ESO157/HLA-A*02:01 scFv displayed on phage (scFv, V domains shown)
VH: QVQLVQSGAEVKKPGSSVKVSCKASGDTFSSYSISWVRQAPGQGLEWMGRIIPILGIANYAQKYQGRVTLSADKSTSTSYMELNSLRSEDTAVYYCARDWSYSIDYWGQGTLVTVSS
VL: QSVVTQPPSVSAAPGQKVTISCSGSSSNIGNNYVSWYQQLPGTAPKLLIYDNNKRPSGIPDRFSGSKSGTSATLGITGLQTGDEADYYCGTWDSSLSAWVFGGGTKLTVLG
notes: also called parental phage clone #35
- MFI [1]: 155
- MFI [3]: 42400
- MFI [5]: 419
- MFI [6]: 17500
- MFI [7]: 163
- MFI [8]: 10200
- MFI [12]: 13.4
- MFI [13]: 17.6

B6: phage clone 35-2, affinity maturation variant of clone #35 (scFv, V domains shown)
VH: QVQLVQSGAEVKKPGSSVKVSCKASGDTFSSYYISWVRQAPGQGLEWMGRIIPILGIANYAQKYQGRVTLSADKSTSTSYMELNSLRSEDTAVYYCARDWSYSIDYWGQGTLVTVSS
VL: QSVVTQPPSVSAAPGQKVTISCSGSSSNIGNNYVSWYQQLPGTAPKLLIYDNNERPSGIPDRFSGSKSGTSATLGITGLQTGDEADYYCGTWDSSLSAWVFGGGTKLTVLG
- MFI [12]: 18.8
- MFI [13]: 20.8
- MFI [14]: 21

B7: phage clone 35-3, affinity maturation variant of clone #35 (scFv, V domains shown)
VH: QVQLVQSGAEVKKPGSSVKVSCKASGDTFSSYYISWVRQAPGQGLEWMGRIIPILGIANYAQKYQGRVTLSADKSTSTSYMELNSLRSEDTAVYYCAREWSYSIDYWGQGTLVTVSS
VL: QSVVTQPPSVSAAPGQKVTISCSGSSSNIGNNYVSWYQQLPGTAPKLLIYDNNKRPSGIPDRFSGSKSGTSATLGITGLRTGDEADYYCGTWDSSLSAWVFGGGTKLTVLG
- MFI [15]: 18.8
- MFI [12]: 18.5
- MFI [16]: 18.9
- MFI [13]: 18.4
- MFI [14]: 19

B8: phage clone 35-12, affinity maturation variant of clone #35 (scFv, V domains shown)
VH: QVPLVQSGAEVKKPGSSVRVSCKASGDTFSNYSISWVRQAPGQGLEWMGRIIPILGIANYAQKYQGRVTLSADKSTSTSYMELNSLRSEDTAVYYCARDWSYSIDYWGQGTLVTVSS
VL: QSVVTQPPSVSAAPGQKVTISCSGSSSNIGNNYVSWYQQLPGTAPKLLIYDNNKRPSGIPDRFSGSKSGTSTTLGITGLQTGDEADYYCGTWDSSLSAWVFGGGTKLTVLG
- MFI [15]: 19.3
- MFI [12]: 17.7
- MFI [16]: 18.6
- MFI [13]: 19.2
- MFI [14]: 18.7

B9: phage clone 35-15, affinity maturation variant of clone #35 (scFv, V domains shown)
VH: QVQLVQSGAEVKKPGSSVKVSCKASGDTFSSYYISWVRQAPGQGLEWMGRIIPILGIANYAQKYQGRVTLSADKSTSTSYMELNSLSSEDTAVYYCALDWSYSIDYWGQGTLVTVSS
VL: QSVVTQPPSVSAAPGQKVTISCSGSSSNIGNNYVSWYQQLPGTAPKLLIYDNNKRPSGIPDRFSASKSGTSATLGITGLQTRDEADYYCGTWDSSLSAWVFGGGTKLTVLG
- MFI [15]: 36.2
- MFI [12]: 31.8
- MFI [16]: 35.4
- MFI [14]: 33.8

B10: phage clone 35-16, affinity maturation variant of clone #35 (scFv, V domains shown)
VH: QVQLVQSGAEVKKPGSSVKVSCKASEDTFSSYYISWVRQAPGQGLEWMGRIIPTLGIANYAQKYQGRVTLSADKSTSTSYMELNSLRSEDTAVYYCARDWSYSIDYWGQGTLVTVSS
VL: QSVVTQPPSVSAAPGQKVTISCSGSSSNIGNNYVSWYQQLPGTAPKLLIYDNNKRPSGIPGRFSGSKSGTSATLGITGLQTGDEADYYCGTWDSSLSAWVFGGGTKLTVLG
- MFI [12]: 18.7
- MFI [16]: 18.7
- MFI [14]: 19.3

B11: phage clone 35-19, affinity maturation variant of clone #35 (scFv, V domains shown)
VH: QEQLVQSGAEVKKPGSSVKVSCKASGDTFSSYYISWVRQAPGQGLEWMGRIIPILGIANYAQKYQGRVTLSADKSTSTSYMELNSLRSEDTAVYYCARDWSYSIDYWGQGTLVTVSS
VL: QSVVTQPPSVSAAPGQKVTISCSGSISNIGNNYVSWYQQLPGTAPKLLIYDNNMRPSGIPDRFSGSKSGTSATLGITGLQTGDEADYYCGTWDSSLSAWVFGGGTKLTVLG
notes: also called variant 35-19
- MFI [15]: 20.7
- MFI [12]: 60.2
- MFI [16]: 21.7
- MFI [13]: 21.9
- MFI [14]: 21.6

B12: phage clone 35-20, affinity maturation variant of clone #35 (scFv, V domains shown)
VH: QVHLVQSGAEVKKPGSSVKVSCKASGDTFSSYYISWVRQAPGQGLEWMGRIIPILGIANYAQKYQGRVTLSADKSTSTSYMELNSLRSEDTAVYYCARDWSYSIDYWGQGTLVTVSS
VL: QSVVTQPPSVSAAPGQKVTISCSGSSSNIGNNYVSWYQQLPGTAPKLLIYDNNKRPSGIPDRFSGSKSGTSATLGITGLQTGDEADYYCGTWDSSLSAWVFGGGTKLTVL
- MFI [15]: 21
- MFI [12]: 19
- MFI [16]: 20.8
- MFI [14]: 20.6

B13: phage clone 35-8, affinity maturation variant of clone #35 (scFv, V domains shown)
VH: QVPLVQSGAEVKKPGSSVKVSCKASGDTFSSYYISWVRQAPGQGLEWMGRIIPILGIANYAQKYQGRVTLSADKSTSTSYMELNNLRSEDTAVYYCARDWSYSIDYWGQGTLVTVSS
VL: QSVVTQPPSVSAAPGQKVTISCSGSSSNIGNNYVSWYQQLPGTAPKLLIYDNNKRPSGIPDRFSGSKSGTSATLGITGLQTGDEADYYCGTWDSSLSAWVFGGGTKLTVL
- MFI [12]: 17.8
- MFI [13]: 18.7
- MFI [14]: 19.6

B14: phage clone 35-14, affinity maturation variant of clone #35 (scFv, V domains shown)
VH: QVQLVQSGAEVKKPGSSVKVSCKASGDTFSSYYISWVRQAPGQGLEWMGRIIPILGIANYAQKYQGRVTLSADKSTSTSYMELNSLRSEDTAVYYCAREWSYSIDYWGQGTLVTVSS
VL: QSVVTQPPSVSAAPGQKVTISCSGSSSNIGNNYVSWYQQLPGTAPELLIYDNNKRPSGIPDRFSGSKSGTSATLGITGLQTGDEADYYCGTWDSSLSAWVFGGGTKLTVL
- MFI [15]: 20.8
- MFI [12]: 18.8
- MFI [16]: 20
- MFI [13]: 19.8
- MFI [14]: 19.5

Source: patent US20190382504A1 (EUREKA THERAPEUTICS, published 2019)
